For assay [1], the target named is serpin Z4 (barley (Hordeum vulgare) cv. Harrington) (UniProt P06293). Put plainly: MST; serpin Z4 labelled with an NHS-ester fluorescent dye (70 nM), unlabelled β-amylase from 16 μM to 0.5 nM; PBS with 0.1% Tween-20; Monolith NT.115; three replicates combined.
The target is the same in assay [2]. Put plainly: SPR; serpin Z4 immobilised by amine coupling on a CM5 chip, β-amylase injected at 2, 0.9, 0.4, 0.2 and 0.1 μM; PBS; Biacore T200.

Sequence of serpin Z4 (barley (Hordeum vulgare) cv. Harrington) (P06293 whole entry): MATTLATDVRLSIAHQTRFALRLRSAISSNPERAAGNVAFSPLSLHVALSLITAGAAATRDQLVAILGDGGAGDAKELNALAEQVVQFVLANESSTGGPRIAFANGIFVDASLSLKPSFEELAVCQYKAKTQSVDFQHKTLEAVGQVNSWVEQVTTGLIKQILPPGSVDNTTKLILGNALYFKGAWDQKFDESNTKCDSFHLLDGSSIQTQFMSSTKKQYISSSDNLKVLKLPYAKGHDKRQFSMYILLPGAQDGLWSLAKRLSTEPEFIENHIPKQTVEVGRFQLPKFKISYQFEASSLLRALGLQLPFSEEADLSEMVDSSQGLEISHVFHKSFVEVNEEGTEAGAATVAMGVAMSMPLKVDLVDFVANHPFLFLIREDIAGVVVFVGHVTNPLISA

As for “β-amylase WT (from UniProt P16098 1-535) (enzyme)”, the Kd (usually the constant that tells how readily two partners part at equilibrium) in assay [1] amounted to 100 nM; in assay [2] it was 316 nM.

(Values after publication PMC6508567.)
